Target: mouse CD47-Fc (mouse) (UniProt Q61735)
Test: bio-light interferometry (ForteBio), antibody on AHQ tip, mouse CD47-Fc 100 nM in solution, bivalent

Chain of Hu5F9, control anti-CD47 antibody transiently expressed in 293 HEK cells (VH): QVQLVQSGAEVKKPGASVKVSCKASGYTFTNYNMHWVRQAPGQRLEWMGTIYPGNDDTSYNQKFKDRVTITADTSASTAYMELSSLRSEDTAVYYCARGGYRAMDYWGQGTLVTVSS
Chain of Hu5F9, control anti-CD47 antibody transiently expressed in 293 HEK cells (VL): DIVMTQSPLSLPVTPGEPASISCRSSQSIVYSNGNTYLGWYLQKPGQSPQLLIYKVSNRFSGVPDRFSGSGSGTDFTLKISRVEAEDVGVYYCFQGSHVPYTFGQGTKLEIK
Chain of mouse CD47-Fc (mouse) (Q61735 19-140 limits assumed): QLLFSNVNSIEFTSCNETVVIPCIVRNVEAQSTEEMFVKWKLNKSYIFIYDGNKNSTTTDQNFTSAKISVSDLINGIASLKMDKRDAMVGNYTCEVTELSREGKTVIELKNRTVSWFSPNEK

Kd: 12.7 nM
Substance: Hu5F9, control anti-CD47 antibody transiently expressed in 293 HEK cells

From patent US20200181259A1
